The source of these data is patent publication US20160136234A1.

Some targets named below: PKCγ (h) (human) (UniProt P05129); Abl (H396P) (h) (human) (UniProt P00519); RIPK2 (h) (human) (UniProt O43353); Rsk2 (h) (human) (UniProt P51812); CK1γ3 (h) (human) (UniProt Q9Y6M4); Abl(T315I) (h) (human) (UniProt P00519); PTK5 (h) (human) (UniProt P42685); cSRC (h) (human) (UniProt P12931); SGK (h) (human) (UniProt O00141); Hck (h) (human) (UniProt P08631); Met(D1246H) (h) (human) (UniProt P08581); FGFR2 (h) (human) (UniProt P21802); Fes (h) (human) (UniProt P07332); CDK5/p25 (h) (human) (UniProt Q00535); EGFR(T790M) (h) (human) (UniProt P00533); Lyn (h) (human) (UniProt P07948); MLK1 (h) (human) (UniProt P80192); HIPK2 (h) (human) (UniProt Q9H2X6).

Assay in all cases: cell-based or functional assay
The next assay deals with T1, TSSK1 (h) (human) (UniProt Q9BXA7).
T1 sequence (looked up): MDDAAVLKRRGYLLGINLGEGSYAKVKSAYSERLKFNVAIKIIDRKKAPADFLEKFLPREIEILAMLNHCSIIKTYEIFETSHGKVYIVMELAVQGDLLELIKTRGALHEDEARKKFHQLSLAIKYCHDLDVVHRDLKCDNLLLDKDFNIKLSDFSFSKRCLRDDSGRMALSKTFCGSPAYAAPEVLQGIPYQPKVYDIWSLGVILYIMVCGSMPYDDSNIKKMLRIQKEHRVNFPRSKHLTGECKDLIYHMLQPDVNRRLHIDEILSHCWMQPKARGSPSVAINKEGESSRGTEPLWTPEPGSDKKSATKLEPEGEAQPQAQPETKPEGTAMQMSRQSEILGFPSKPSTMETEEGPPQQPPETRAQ

Another assay deals with T2, Fms (h) (human) (UniProt P07333).
T2 sequence (looked up): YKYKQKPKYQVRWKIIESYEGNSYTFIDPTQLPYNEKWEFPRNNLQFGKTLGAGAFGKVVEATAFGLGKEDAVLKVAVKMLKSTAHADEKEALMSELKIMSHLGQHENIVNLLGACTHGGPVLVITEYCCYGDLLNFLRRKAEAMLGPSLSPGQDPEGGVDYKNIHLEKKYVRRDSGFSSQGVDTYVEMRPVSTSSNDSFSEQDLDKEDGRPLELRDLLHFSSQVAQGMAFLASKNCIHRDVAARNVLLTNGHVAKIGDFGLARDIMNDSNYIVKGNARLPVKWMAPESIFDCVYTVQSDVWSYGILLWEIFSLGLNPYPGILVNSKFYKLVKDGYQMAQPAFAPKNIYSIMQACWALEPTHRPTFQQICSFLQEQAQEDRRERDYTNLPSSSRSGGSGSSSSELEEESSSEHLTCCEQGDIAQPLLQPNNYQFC

A further assay concerns the target T3, DDR2 (h) (human) (UniProt Q16832).
T3 sequence (looked up): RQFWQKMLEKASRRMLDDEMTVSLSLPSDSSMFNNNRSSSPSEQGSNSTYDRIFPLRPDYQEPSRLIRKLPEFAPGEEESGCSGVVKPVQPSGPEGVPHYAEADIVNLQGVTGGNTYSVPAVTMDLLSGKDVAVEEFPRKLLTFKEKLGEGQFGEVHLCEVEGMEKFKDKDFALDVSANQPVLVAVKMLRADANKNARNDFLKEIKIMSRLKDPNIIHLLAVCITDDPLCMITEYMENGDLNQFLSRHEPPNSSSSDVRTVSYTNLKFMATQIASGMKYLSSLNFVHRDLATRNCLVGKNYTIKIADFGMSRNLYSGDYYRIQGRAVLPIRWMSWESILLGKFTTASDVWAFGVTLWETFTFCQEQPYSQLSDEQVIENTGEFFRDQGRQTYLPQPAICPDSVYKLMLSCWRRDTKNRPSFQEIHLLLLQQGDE

In assay [1] the target is Calcium/Calmodulin-Dependent Protein Kinase I (human) (UniProt Q14012).
A further assay addresses T4, PDK1 (h) (human) (UniProt O15530).
T4 sequence (looked up): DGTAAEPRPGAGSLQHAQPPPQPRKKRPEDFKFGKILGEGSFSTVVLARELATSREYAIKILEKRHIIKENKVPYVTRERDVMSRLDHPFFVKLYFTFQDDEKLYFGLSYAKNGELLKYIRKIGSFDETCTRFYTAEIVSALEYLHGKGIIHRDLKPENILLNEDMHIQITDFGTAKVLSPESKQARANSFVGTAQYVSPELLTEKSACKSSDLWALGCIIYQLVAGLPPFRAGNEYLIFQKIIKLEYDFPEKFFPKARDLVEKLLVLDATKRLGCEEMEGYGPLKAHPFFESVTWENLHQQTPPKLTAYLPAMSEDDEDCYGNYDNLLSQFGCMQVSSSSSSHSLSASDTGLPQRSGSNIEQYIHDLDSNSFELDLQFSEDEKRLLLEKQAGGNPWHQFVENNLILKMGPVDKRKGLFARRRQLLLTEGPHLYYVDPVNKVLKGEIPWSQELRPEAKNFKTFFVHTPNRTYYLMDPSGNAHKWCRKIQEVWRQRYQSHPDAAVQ

Sequence of Abl (H396P) (h) (human) (P00519 27-1130 H396P limits assumed): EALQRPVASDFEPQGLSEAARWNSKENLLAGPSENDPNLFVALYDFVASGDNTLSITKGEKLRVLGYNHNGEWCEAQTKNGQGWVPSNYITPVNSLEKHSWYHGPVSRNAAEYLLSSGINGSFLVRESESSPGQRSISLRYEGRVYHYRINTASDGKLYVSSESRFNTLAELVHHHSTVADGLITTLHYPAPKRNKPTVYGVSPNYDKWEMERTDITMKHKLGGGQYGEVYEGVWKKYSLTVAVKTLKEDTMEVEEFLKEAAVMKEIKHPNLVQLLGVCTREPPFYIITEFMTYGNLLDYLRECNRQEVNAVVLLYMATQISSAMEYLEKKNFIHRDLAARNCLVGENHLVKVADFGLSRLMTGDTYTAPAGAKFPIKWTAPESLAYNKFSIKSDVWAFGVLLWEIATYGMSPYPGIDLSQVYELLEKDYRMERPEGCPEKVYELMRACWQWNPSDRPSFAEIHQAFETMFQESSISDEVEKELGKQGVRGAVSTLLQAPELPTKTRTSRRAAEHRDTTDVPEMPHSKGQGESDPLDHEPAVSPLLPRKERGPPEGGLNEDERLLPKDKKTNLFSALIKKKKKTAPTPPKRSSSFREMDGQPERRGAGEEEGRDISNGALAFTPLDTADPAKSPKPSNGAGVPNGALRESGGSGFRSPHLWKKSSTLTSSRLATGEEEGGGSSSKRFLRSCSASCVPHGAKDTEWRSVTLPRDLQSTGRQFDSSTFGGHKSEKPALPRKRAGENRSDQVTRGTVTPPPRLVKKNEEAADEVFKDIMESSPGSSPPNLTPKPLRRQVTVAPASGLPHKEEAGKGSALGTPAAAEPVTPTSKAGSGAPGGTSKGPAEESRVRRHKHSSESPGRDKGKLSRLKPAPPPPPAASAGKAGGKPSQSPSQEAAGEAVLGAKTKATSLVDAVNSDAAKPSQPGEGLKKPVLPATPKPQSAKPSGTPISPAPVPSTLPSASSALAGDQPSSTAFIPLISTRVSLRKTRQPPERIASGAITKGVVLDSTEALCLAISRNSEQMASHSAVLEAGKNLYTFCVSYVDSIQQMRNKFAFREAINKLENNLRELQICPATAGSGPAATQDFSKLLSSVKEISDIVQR
Sequence of PTK5 (h) (human) (P42685 whole entry): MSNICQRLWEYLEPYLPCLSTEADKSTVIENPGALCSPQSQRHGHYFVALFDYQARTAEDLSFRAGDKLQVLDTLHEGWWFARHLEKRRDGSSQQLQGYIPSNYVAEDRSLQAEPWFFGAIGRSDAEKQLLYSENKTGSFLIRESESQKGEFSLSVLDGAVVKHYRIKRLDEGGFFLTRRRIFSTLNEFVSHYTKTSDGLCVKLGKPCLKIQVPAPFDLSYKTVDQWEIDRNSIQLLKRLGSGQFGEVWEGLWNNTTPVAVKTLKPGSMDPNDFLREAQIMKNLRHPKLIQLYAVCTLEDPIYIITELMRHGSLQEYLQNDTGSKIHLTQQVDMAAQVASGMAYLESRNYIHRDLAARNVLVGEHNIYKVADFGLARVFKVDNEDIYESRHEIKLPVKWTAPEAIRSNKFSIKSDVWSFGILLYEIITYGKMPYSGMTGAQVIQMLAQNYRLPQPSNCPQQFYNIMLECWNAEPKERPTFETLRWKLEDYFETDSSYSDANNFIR
Sequence of Rsk2 (h) (human) (P51812 whole entry): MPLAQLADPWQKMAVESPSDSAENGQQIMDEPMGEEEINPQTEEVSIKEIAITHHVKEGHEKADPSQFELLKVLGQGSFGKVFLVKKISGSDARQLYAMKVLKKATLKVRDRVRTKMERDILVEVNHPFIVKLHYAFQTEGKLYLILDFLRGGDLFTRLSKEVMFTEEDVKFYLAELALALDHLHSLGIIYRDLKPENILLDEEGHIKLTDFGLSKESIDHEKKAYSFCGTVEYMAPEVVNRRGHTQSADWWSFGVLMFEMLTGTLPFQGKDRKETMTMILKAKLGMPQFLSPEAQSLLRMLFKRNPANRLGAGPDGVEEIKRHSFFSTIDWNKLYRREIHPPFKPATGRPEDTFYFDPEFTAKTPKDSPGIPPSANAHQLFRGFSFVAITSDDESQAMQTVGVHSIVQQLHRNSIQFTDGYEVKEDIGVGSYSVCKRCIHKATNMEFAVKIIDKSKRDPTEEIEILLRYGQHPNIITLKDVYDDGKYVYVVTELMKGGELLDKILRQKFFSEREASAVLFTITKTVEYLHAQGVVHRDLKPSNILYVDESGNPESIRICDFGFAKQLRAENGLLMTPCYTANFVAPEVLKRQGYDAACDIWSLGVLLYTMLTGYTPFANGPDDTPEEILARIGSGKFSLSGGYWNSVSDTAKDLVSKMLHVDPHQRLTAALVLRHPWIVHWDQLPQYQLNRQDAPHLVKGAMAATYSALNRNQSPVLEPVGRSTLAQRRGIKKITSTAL
Sequence of SGK (h) (human) (O00141 60-431 limits assumed): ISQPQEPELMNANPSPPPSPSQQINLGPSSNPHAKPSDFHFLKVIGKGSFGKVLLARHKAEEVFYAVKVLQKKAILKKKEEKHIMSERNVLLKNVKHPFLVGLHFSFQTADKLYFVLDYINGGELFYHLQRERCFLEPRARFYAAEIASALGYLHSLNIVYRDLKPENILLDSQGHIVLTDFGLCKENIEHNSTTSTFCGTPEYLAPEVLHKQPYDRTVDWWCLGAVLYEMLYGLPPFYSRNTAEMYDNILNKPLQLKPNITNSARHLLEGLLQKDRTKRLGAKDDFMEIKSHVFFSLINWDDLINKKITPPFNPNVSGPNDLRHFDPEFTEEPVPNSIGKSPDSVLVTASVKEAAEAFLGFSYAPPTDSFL
Sequence of Abl(T315I) (h) (human) (P00519 27-1130 T315I limits assumed): as the sequence (P00519 27-1130 H396P limits assumed) above, with T289I, P370H counted along it
Sequence of FGFR2 (h) (human) (P21802 456-770 limits assumed): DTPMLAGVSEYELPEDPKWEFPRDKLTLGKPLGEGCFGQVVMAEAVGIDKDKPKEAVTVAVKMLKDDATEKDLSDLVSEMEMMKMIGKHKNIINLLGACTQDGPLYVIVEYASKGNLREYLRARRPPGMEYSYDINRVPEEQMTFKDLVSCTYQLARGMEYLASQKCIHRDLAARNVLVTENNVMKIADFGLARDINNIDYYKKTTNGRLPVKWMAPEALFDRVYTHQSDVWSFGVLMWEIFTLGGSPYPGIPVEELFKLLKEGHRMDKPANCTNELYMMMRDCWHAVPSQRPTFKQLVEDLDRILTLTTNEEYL
Sequence of RIPK2 (h) (human) (O43353 1-299 limits assumed): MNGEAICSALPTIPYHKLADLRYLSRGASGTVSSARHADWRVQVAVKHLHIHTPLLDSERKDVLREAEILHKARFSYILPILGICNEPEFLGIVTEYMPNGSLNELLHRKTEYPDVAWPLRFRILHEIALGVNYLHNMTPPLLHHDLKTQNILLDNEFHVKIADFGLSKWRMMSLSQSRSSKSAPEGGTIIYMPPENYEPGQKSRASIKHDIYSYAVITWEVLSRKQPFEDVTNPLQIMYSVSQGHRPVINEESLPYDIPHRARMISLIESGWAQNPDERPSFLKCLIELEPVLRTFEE

MMI-0300 (peptide): the % activity at 100 µM was 79% in the assay with TSSK1 (h) (human); 45% with Fms (h) (human); 89% with PKCγ (h) (human); 101% with Abl (H396P) (h) (human); 97% with RIPK2 (h) (human); 51% in the assay with Rsk2 (h) (human). In addition, the % activity at 100 µM is 94% with DDR2 (h) (human); 125% with CK1γ3 (h) (human); 97% with Abl(T315I) (h) (human); 132% with PTK5 (h) (human); 26% in the assay with cSRC (h) (human); 48% with SGK (h) (human). The % activity at 100 µM with Hck (h) (human) came out at 72%; in the assay with Met(D1246H) (h) (human) it was 125%; with FGFR2 (h) (human), 14%; in the assay with Fes (h) (human), 20%; in [1], 1%; with PDK1 (h) (human), 135%. Further, the % activity at 100 µM is 89% with CDK5/p25 (h) (human); 100% in the assay with EGFR(T790M) (h) (human); 69% with Lyn (h) (human); 40% with MLK1 (h) (human); 73% with HIPK2 (h) (human).
